Source: the supplement of paper PMC10065799, “High-throughput profiling of sequence recognition by tyrosine kinases and SH2 domains using bacterial peptide display” (eLife, 2023)

Columns and labels:
Fes = Fes (UniProt P07332); test: phosphorylation enrichment, bacterial display (enrichment ratio); higher = better substrate or ligand; peptides without Tyr show the background
Hck = Hck (UniProt P08631); test: as above
AncSZ = test: as above
FGFR1 = FGFR1 (UniProt P11362); test: as above
MERTK = MERTK (UniProt Q12866); test: as above
c-Src = test: as above
Fer (mouse) = test: as above
EPHB1 = EPHB1 (UniProt P54762); test: as above
Jak2 = Jak2 (UniProt O60674); test: as above
c-Abl (mouse) = test: as above
FGFR3 = FGFR3 (UniProt P22607); test: as above
Fyn = Fyn (UniProt P06241); test: as above
EPHB2 = EPHB2 (UniProt P29323); test: as above
c-Src SH2 = test: SH2 binding enrichment of the phosphorylated peptide, bacterial display (enrichment ratio); higher = better substrate or ligand; peptides without Tyr show the background
SHP2-C SH2 = test: as above
Grb2 SH2 = Grb2 SH2 (UniProt P62993); test: as above
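Wherever SH2 binding enrichment of the phosphorylated peptide, bacterial display is given: peptide library displayed on the E. coli surface as eCPX fusions, selected cells deep-sequenced, score is each peptide's frequency after selection divided by its frequency in the input.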
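Wherever phosphorylation enrichment, bacterial display is given: 11-residue human phosphosite peptides and single-mutation variants displayed on the E. coli surface, counted by deep sequencing, each peptide's frequency after selection divided by its frequency in the unselected input library; frequency after pTyr selection over input frequency; kinase dosed for 20-30% of maximal phosphorylation in three min.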

Fyn, sequence (P06241 whole entry, looked up): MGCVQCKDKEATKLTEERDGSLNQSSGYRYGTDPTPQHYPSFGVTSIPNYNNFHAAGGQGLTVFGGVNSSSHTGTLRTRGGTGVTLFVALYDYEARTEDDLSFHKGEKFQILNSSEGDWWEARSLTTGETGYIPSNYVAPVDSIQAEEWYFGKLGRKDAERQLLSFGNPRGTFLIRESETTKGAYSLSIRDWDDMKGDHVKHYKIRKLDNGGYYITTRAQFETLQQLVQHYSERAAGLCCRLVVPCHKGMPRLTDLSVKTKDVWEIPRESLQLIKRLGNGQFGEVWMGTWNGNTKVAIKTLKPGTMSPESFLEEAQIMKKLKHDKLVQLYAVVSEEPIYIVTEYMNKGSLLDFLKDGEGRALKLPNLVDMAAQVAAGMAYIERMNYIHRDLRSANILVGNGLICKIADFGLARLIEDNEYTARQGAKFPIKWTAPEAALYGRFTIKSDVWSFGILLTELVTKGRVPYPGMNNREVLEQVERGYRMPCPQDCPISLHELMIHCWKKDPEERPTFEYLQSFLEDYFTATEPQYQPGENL
Jak2, sequence (O60674 whole entry, looked up): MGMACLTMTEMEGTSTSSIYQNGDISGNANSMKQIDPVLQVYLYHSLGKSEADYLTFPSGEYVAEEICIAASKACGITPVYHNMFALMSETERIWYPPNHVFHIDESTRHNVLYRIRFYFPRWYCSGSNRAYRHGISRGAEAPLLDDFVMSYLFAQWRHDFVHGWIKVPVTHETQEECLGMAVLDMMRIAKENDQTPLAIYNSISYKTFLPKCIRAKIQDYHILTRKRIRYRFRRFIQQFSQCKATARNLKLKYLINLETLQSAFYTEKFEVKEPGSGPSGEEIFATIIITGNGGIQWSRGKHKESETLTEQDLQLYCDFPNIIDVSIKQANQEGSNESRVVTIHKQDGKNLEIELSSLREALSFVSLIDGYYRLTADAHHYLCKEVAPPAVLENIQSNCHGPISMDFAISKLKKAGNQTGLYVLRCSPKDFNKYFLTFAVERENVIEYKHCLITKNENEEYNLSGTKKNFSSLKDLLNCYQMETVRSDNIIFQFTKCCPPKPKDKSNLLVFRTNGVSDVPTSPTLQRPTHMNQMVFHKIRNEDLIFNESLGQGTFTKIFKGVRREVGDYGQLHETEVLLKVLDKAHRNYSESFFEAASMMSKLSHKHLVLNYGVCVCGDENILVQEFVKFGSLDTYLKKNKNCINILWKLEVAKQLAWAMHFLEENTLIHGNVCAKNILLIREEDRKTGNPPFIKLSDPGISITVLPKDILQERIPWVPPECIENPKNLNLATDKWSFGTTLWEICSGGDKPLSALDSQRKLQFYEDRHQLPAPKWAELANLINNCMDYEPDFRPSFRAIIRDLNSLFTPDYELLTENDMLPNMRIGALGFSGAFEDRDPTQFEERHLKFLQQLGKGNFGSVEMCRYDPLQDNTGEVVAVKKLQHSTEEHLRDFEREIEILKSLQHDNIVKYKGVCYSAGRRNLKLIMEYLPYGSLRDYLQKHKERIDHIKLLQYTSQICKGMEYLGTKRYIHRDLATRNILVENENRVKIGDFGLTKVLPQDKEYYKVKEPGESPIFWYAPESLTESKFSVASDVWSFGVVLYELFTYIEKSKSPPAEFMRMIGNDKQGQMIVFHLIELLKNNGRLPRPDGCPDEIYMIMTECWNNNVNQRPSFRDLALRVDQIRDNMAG
MERTK, sequence (Q12866 whole entry, looked up): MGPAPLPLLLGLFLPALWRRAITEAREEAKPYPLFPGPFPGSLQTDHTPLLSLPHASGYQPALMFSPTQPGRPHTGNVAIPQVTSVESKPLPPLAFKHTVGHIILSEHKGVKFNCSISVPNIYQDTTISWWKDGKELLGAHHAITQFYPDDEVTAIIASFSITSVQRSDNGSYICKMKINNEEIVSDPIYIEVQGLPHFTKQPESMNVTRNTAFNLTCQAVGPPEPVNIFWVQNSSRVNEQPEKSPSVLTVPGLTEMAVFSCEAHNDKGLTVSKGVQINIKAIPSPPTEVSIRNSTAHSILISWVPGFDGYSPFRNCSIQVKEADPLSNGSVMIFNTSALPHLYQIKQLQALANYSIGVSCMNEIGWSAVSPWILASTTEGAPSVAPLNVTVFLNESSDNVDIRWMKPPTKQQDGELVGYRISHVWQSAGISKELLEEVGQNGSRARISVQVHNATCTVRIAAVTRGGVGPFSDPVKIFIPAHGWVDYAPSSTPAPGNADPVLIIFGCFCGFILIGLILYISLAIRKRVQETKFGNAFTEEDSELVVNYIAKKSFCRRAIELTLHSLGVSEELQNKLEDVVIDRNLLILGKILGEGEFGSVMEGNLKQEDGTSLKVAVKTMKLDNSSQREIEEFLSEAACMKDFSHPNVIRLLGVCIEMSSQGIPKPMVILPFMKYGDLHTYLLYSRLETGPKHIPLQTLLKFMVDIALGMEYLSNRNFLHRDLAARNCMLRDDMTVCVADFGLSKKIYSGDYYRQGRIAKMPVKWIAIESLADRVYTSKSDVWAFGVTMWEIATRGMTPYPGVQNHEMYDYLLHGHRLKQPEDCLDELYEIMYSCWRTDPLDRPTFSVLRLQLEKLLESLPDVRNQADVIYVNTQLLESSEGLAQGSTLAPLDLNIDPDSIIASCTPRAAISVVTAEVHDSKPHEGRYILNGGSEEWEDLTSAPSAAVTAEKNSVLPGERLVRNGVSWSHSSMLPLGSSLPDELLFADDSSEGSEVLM
FGFR3, sequence (P22607 whole entry, looked up): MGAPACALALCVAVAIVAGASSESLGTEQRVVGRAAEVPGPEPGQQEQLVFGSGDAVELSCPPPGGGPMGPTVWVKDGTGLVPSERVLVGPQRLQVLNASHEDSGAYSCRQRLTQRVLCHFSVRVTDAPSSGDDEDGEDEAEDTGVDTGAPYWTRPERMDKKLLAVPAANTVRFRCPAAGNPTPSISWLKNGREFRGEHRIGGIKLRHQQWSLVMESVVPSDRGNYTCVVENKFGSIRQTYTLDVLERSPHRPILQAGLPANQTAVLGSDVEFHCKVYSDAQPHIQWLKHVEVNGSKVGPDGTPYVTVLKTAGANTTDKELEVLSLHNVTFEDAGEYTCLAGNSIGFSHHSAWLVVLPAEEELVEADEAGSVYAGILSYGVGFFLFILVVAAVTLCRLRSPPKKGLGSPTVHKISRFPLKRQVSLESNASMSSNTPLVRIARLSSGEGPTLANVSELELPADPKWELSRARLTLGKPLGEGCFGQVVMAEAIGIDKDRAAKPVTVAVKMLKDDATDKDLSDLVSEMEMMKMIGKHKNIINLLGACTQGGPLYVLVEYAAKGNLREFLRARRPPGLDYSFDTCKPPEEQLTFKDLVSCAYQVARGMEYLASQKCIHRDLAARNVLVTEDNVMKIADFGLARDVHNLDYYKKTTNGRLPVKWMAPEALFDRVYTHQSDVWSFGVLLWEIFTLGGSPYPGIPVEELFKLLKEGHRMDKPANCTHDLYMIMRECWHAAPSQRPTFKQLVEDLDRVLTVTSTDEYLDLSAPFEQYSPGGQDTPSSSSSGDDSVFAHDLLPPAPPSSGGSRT
FGFR1, sequence (P11362 whole entry, looked up): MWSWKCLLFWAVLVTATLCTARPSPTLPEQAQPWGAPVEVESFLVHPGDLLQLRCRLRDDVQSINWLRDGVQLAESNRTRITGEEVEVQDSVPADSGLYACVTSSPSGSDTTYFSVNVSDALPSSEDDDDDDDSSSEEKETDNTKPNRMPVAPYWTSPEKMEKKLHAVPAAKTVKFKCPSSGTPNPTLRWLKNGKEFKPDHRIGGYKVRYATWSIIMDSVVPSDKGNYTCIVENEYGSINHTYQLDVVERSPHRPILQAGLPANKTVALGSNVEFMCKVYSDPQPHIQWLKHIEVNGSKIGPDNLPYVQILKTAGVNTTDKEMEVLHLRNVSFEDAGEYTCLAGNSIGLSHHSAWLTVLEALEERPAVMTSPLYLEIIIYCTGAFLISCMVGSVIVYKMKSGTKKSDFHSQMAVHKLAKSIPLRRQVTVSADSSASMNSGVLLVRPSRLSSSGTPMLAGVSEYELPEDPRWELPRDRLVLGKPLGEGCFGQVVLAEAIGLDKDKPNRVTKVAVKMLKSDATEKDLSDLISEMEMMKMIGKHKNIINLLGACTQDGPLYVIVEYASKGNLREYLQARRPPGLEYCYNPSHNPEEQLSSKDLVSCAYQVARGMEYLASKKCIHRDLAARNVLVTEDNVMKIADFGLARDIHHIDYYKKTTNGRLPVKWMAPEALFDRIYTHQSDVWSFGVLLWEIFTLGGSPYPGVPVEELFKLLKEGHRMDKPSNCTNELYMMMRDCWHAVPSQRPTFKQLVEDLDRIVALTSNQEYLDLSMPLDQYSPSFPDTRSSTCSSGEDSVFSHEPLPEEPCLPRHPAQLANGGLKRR
Hck, sequence (P08631 whole entry, looked up): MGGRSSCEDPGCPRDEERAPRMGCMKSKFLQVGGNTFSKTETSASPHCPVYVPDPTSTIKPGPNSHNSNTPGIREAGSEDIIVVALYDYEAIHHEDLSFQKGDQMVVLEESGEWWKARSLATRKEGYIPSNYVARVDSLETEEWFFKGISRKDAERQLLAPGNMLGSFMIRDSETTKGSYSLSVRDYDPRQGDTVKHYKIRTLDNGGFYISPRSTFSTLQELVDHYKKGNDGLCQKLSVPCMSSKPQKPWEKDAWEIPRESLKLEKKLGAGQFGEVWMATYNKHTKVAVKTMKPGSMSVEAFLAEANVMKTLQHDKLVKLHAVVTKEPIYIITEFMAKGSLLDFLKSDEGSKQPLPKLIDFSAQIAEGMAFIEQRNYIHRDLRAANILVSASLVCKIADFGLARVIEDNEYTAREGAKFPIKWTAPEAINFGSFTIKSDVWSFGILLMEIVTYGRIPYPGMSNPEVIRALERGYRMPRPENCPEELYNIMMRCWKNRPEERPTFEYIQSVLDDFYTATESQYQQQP

| Sequence | SH2 binding enrichment (c-Src SH2) | SH2 binding enrichment (SHP2-C SH2) | SH2 binding enrichment (Grb2 SH2) | phosphorylation enrichment (Fes) | phosphorylation enrichment (Hck) | phosphorylation enrichment (AncSZ) | phosphorylation enrichment (FGFR1) | phosphorylation enrichment (MERTK) | phosphorylation enrichment (c-Src) | phosphorylation enrichment (Fer (mouse)) | phosphorylation enrichment (EPHB1) | phosphorylation enrichment (Jak2) | phosphorylation enrichment (c-Abl (mouse)) | phosphorylation enrichment (FGFR3) | phosphorylation enrichment (Fyn) | phosphorylation enrichment (EPHB2) |
| --- | --- | --- | --- | --- | --- | --- | --- | --- | --- | --- | --- | --- | --- | --- | --- | --- |
| IYSGIYYKPES [L2HGDH_Y102_H98Y] | 1.28 | 1.22 | 1.01 | 9.02 | 9.78 | 3.08 | 8.71 | 11.5 | 7.25 | 15.8 | 14.1 | 7.32 | 23.7 | 7.9 | 10.2 | 15.9 |
| KAPPTYDNVLQ [CYP3A4_Y347_T349N] | 3.58 | 0.674 | 4.72 | 0.714 | 1.68 | 0.606 | 0.452 | 1.22 | 0.785 | 1.85 | 6.04 | 0.514 | 0.511 | 0.482 | 0.978 | 3.6 |
| KAWGIYDCQQP [CYP3A7_Y75_V71A] | 0.602 | 0.489 | 0.969 | 1.56 | 6.67 | 1.73 | 0.53 | 5.53 | 4.8 | 3.52 | 8.32 | 1.12 | 1.12 | 0.852 | 7.28 | 4.21 |
| KEELDYLKKNH [KRT14_Y248_A247D] | 0.425 | 0.682 | 0.742 | 1.1 | 0.382 | 1.04 | 0.447 | 0.419 | 0.467 | 0.45 | 0.554 | 0.879 | 0.854 | 0.666 | 0.355 | 0.624 |
| KFLENYFDLEK [MMP3_Y41_K45E_YF] | 0.741 | 1.06 | 0.991 | 1.23 | 0.487 | 1.39 | 3.77 | 0.46 | 0.502 | 0.439 | 2.5 | 1.39 | 0.844 | 2.14 | 0.467 | 0.878 |
| KGEDFYCVTCH [FHL1_Y149] | 0.962 | 0.842 | 1.19 | 1.12 | 0.801 | 1.09 | 0.579 | 0.597 | 0.613 | 0.504 | 0.696 | 0.933 | 0.675 | 0.775 | 0.797 | 0.569 |
| KHVMPYAANKN [GRIN2A_Y1431_E1426K] | 0.92 | 1.2 | 1.03 | 0.511 | 0.332 | 0.547 | 0.401 | 0.383 | 0.36 | 0.374 | 0.301 | 0.443 | 0.484 | 0.387 | 0.345 | 0.43 |
| KIITDYYVDMK [MPP4_Y566_V562I] | 3.04 | 0.82 | 0.861 | 0.941 | 0.449 | 1.09 | 4.12 | 0.547 | 0.517 | 0.482 | 1.56 | 1.22 | 0.677 | 2.6 | 0.55 | 0.718 |
| KILAKYSLETS [NAMPT_Y175_L176S] | 0.388 | 0.529 | 0.871 | 0.58 | 0.437 | 0.537 | 0.442 | 0.256 | 0.301 | 0.377 | 0.335 | 0.503 | 0.476 | 0.456 | 0.354 | 0.409 |
| KILGTYFETGS [PAX2_Y72_R71T_YF] | 0.638 | 0.982 | 0.848 | 0.867 | 0.485 | 0.833 | 0.814 | 0.5 | 0.585 | 0.467 | 0.491 | 0.717 | 0.668 | 0.793 | 0.577 | 0.47 |

Now from value to sequence, other results behind:

| SH2 binding enrichment (c-Src SH2) | SH2 binding enrichment (SHP2-C SH2) | SH2 binding enrichment (Grb2 SH2) | Sequence | phosphorylation enrichment (Fes) | phosphorylation enrichment (Hck) | phosphorylation enrichment (AncSZ) | phosphorylation enrichment (FGFR1) | phosphorylation enrichment (MERTK) | phosphorylation enrichment (c-Src) | phosphorylation enrichment (Fer (mouse)) | phosphorylation enrichment (EPHB1) | phosphorylation enrichment (Jak2) | phosphorylation enrichment (c-Abl (mouse)) | phosphorylation enrichment (FGFR3) | phosphorylation enrichment (Fyn) | phosphorylation enrichment (EPHB2) |
| --- | --- | --- | --- | --- | --- | --- | --- | --- | --- | --- | --- | --- | --- | --- | --- | --- |
| 0.518 | 0.875 | 0.897 | KAWTIYHPEDS [ZBP1_Y165_R166H] | 1.02 | 0.569 | 0.949 | 0.432 | 0.474 | 0.833 | 0.482 | 0.559 | 0.871 | 0.723 | 0.787 | 0.646 | 0.547 |
| 0.583 | 0.715 | 0.91 | KFANSYIMEPL [TCTE3_Y87_R88I] | 0.606 | 0.432 | 0.853 | 0.524 | 0.37 | 0.712 | 0.498 | 0.39 | 0.476 | 0.436 | 0.629 | 0.529 | 0.531 |
| 0.444 | 0.548 | 0.802 | KFDLMYAKRAF [TUBA1A_Y399] | 0.921 | 0.463 | 0.905 | 0.465 | 0.414 | 0.409 | 0.442 | 0.535 | 0.667 | 0.544 | 0.589 | 0.434 | 0.536 |
| 1.22 | 1.29 | 1.2 | KGRGEYFAIKA [PRKCD_Y374] | 0.666 | 0.614 | 0.702 | 4.32 | 0.381 | 0.47 | 0.451 | 0.943 | 0.702 | 0.769 | 2.67 | 0.426 | 0.905 |
| 1.81 | 0.933 | 0.974 | KGRGEYSAIKA [PRKCD_Y374_F375S] | 0.864 | 0.811 | 0.553 | 0.393 | 0.603 | 0.625 | 0.45 | 0.434 | 0.636 | 0.761 | 0.443 | 0.412 | 0.366 |
| 0.573 | 0.859 | 1.18 | KHMADYPDCKF [SOX11_Y113_Y116C_YF] | 1.04 | 0.475 | 0.92 | 0.587 | 0.456 | 0.397 | 0.495 | 0.532 | 0.879 | 0.703 | 0.74 | 0.423 | 0.556 |
